Assays:
MS2 coat protein [1] = assay: apparent KD of MS2 coat protein; designed switch direction (-1 OFF switch, 1 ON switch): -1; higher = weaker reporter binding; details: Eterna round: R98
Method: (§1)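 RNA-MaP: designed FMN/MS2 RNA switches (84 nt design region) are transcribed on-chip within common flanks and titrated with SNAP-549-labelled MS2 coat protein (about 1-3000 nM) in 100 mM Tris pH 7.5, 80 mM KCl, 4 mM MgCl2, without or with 200 uM FMN. Median apparent KD per design; activation ratio = KD,OFF / KD,ON.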

MS2 coat protein [2] = assay: apparent KD of MS2 coat protein; higher = weaker reporter binding; details: Eterna round: R101
Method: as §1

Row | Sequence | apparent KD of MS2 coat protein (MS2 coat protein [1]; input ligand: FMN 200 uM) | apparent KD of MS2 coat protein (MS2 coat protein [1]; input ligand: none) | apparent KD of MS2 coat protein (MS2 coat protein [2]; input ligand: FMN 200 uM) | apparent KD of MS2 coat protein (MS2 coat protein [2]; input ligand: none)
1 | UAUAUUUAGGCAGGAUAUACAUGUAUAUAUAAUUUUUUAUAUAUUAUUACAUGAGGAUCACCCAUGUAGAAGGGCCUUAUUAUA [LRO040_Exclusion NG 2] | 62.9 nM | 51.2 nM |  | 
2 | CGCUCGCCGAGAGGAUAUGCAUUGGUGGGCGGUCCUGAACAUGAGGAUCACCCAUGUAUCAGUAAGCAGAAGGCUUGGUAGACG [Usesreed] | 16.5 nM | 20.1 nM |  | 
3 | GGUUGUUACGCAGGAUAUUGCCAACAGGCAGUAGGAUAUCCGAAAGGAGAAGGACCGCCAACAGGCGAGAAGGGCGGGUUAACC [pwkr exNG2 2xF7 2FMN.10.4] | 48.3 nM | 35.4 nM |  | 
4 | UGUUGUUACGCAGGAUAUUGCCAACAGGCGGUAGGAUAUCCGAAAGGAGAAGGAUCGCCAACAGGCGAGAAGGGCGGGUUAACA [pwkr exNG2 2xF7 2FMN.10.3] | 26.7 nM | 21.3 nM |  | 
5 | UAAAUAAAUCCUAGAGGAUCACCCUAGGAUAUGAGGCUGCACCUCGGAUAAUCCGAGGUGCAGCCUCAGAAGGAGGAAAAUAAA [#SharedSequence - SLExNG3: 4-2] (puzzle (switch architecture): Small Loop Exclusion NG 3) |  |  | 7.71 nM | 8.16 nM
6 | GUCACGGUUAAUUCCGUGACGCGCAAACCUUGAGGAUCACCCAAGGAUAUCGACGUCAAUGACGUCGAGAAGGUGGUUGAGCGC [#SharedSequence] (puzzle (switch architecture): Exclusion NG 3) |  |  | 95.6 nM | 
7 | UUUUUUUUUUUUUACGCUUUGCGACGAGAAGGUACACAUGAGGAUCACCCAUGUCGAUUGGGAGGUAAGGAUAUUGGAUUGCGU [Inverted Small Loop Same State NG 3 Solution, Uracil-heavy] (puzzle (switch architecture): Inverted Small Loop Same State NG 3) |  |  | 0.483 nM | 18.4 nM
8 | UAAAUAAAUCCUAGAGGAUCACCCUAGGAUAUGAGGCUGCACCUCGGAUAAUCCGAGGUGCAGCCUCAGAAGGAGGUUGAUAAA [#SharedSequence - SLExNG3: 6-2] (puzzle (switch architecture): Small Loop Exclusion NG 3) |  |  | 11.8 nM | 10.5 nM
9 | CGGGAUACGAAGGGCGAAAGCCCACAUGAGGAUCACCCAUGUAGAAGGCGGGCCGCAACGCGGCCCGAGGAUAUACAGUAUCCA [#my 5th design] (puzzle (switch architecture): Inverted Exclusion NG 3) |  |  | 10.5 nM | 5.72 nM
10 | AUCAGCUCGUCAGGAUAUACGUCACUGCGUCAGCAGUGUGGUAAGAUCACAUGAGGAUCACCCAUGUAGAAGGGACGAGCUGAU [#MiniMS2Turnoff - Ex NG2 #82] (puzzle (switch architecture): Exclusion NG 2) |  |  | 273 nM | 13.7 nM
11 | AGACCUGCUCAGAAGGCGGGUGCGAGGCUGGAAACAGCCUCGAAUUAAAAUCUUCGAGGAUCACCCGAGGAUAUGAGCAGGUCA [#SharedSequence - IExNG2: 16] (puzzle (switch architecture): Inverted Exclusion NG 2) |  |  | 19 nM | 54.2 nM
12 | GGUCGACCUCAAGGAUAUGGACUGCAAAGCAGUCCAGAAGGUGAGGAUCACCCAUCUACGGUCAGGAAACUGACCGAUCGACCA [#SharedSequence - ExNG1-6] (puzzle (switch architecture): Exclusion NG 1) |  |  | 914 nM | 308 nM
13 | AGAGCCUCGUGAGGAUAUACAUGAGGAUCACCCAUGUAAUAGGAUGAACGGAGGAAACUCCGAAUGUAGAAGGCACGAGGCUCA [Exclusion NG 2/11-B1] | 686 nM | 74.5 nM |  | 

— the supplement of paper PMC9170038
